T1: human claudin 9 (CLDN9) (human, UniProt O95484 1-217)
T1 construct: also called human CLDN9
T1 sequence: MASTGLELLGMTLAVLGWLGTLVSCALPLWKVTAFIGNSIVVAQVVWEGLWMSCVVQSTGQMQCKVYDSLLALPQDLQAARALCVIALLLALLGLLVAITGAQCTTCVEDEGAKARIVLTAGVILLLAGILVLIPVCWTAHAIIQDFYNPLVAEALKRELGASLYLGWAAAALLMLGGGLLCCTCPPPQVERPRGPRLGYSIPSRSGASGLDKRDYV

T2: human claudin 6 (CLDN6) (human, UniProt P56747 1-220)
T2 construct: also called human CLDN6; hCLDN6
T2 sequence: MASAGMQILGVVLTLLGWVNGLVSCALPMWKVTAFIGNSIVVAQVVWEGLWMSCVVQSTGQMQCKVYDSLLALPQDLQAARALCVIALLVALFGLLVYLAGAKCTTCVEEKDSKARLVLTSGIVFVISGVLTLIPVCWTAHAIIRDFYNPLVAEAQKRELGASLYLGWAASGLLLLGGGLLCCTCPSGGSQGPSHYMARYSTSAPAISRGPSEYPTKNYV


Columns and labels:
human claudin 9 (CLDN9) = molecular target: T1, human claudin 9 (CLDN9); assay: flow cytometry on HEK293T/human CLDN9 cells (non-specific binding validation)
human claudin 6 (CLDN6) = molecular target: T2, human claudin 6 (CLDN6); assay: flow cytometry on HEK293T/human CLDN6 cells
Description: For affinity determination, CLDN6 over-expressing HEK293T cells and cancer cell line PA-1 which express high levels of human CLDN6 were used to evaluate the binding activity of BG87P related engineering variants. Live cells were seeded in 96-well plate, and were incubated with a series of dilutions of chBG87P and engineered variants thereof. Goat anti-human IgG was used as second antibody to detect antibody binding to the cell surface. EC50 values for dose-dependent binding to CLDN6 expressing cell lines were determined by fitting the dose-response data to the four-parameter logistic model with GraphPad Prism. Cell binding activity of 1st round of BG87P humanization variants against HEK293T/human CLDN6 were compared to chBG87P and shown in FIG. 1A.

binding result (human claudin 9 (CLDN9)) | EC50 (read off the curve) (human claudin 6 (CLDN6)) [nM] | Binder
no binding |  | BG87P-34 (antibody, V domains shown, Final lead clone, framework IGHV3-23 and IGKV1-39; also called BG87-34) VH: EVQLQESGGGLVQPGGSLRLSCAASGYSFSDYHINWVRQAPGKGLEWVGYIYPGSGHTKYNEKFKGRFTISRDTSSNTAYLQMNSLRAEDTAVYYCARSGIYHYVSSYYFDHWGQGTLVTVSS VL: DIQMTQSPSSLSASVGDRVTITCKASQDAGSAVAWYQQKPGKAPKLLIYWASTRHTGVPSRFSGSGSGTDFTLTISSLQPEDFATYYCQQYSSYTFGGGTKLEIK
 | ~30 | BG87P-33 (antibody, V domains shown, Framework-swapped variant; also called BG87-33) VH: EVQLQESGGGLVQPGGSLRLSCAASGYSFTDYHINWVRQAPGKGLEWVSYIYPGSGHTKYNEKFKGRFTISRDTSKNTAYLQMNSLRAEDTAVYYCARSGIYHYVSSYYFDHWGQGTLVTVSS VL: DIQMTQSPSTLSASVGDRVTITCKASQDAGSAVAWYQQKPGKAPKLLIYWASTRHTGVPSRFSGSGSGTEFTLTISSLQPDDFATYYCQQYSSYTFGGGTKVEIK

— patent US20240301051A1 (BEIGENE SWITZERLAND, published 2024)
